Experimental data published in publication PMC6189496, “Epstein-Barr Virus Nuclear Antigen 3C Inhibits Expression of COBLL1 and the ADAM28-ADAMDEC1 Locus via Interaction with the Histone Lysine Demethylase KDM2B” (Journal of Virology, 2018).
Residue numbers refer to the chain shown, from its start. Numbers in names are those of the source.

T1: BMI1 (human (endogenous in LCLs), UniProt P35226 1-326)
T1 construct: BMI1, endogenous in lymphoblastoid cell lines, immunoprecipitated with anti-BMI1 (A301-694A; Bethyl); also called PRC1 core component BMI1; source: endogenous, LCL lysate
T1 sequence (looked up): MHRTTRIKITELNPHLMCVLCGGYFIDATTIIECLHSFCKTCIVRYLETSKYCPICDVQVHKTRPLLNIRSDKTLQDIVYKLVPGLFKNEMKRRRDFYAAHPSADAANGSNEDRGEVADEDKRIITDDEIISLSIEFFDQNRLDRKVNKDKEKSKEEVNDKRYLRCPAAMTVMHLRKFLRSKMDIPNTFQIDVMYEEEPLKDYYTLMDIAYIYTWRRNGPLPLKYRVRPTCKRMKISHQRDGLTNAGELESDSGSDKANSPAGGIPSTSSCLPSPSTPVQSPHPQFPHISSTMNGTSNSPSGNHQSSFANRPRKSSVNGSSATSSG

T2: histone lysine demethylase KDM2B (human (endogenous in LCLs), UniProt Q8NHM5 1-1336)
T2 construct: KDM2B, endogenous in lymphoblastoid cell lines, immunoprecipitated with anti-KDM2B (09-864; Millipore); also called FBXL10; JHDM1B; source: endogenous, LCL lysate
T2 sequence (looked up): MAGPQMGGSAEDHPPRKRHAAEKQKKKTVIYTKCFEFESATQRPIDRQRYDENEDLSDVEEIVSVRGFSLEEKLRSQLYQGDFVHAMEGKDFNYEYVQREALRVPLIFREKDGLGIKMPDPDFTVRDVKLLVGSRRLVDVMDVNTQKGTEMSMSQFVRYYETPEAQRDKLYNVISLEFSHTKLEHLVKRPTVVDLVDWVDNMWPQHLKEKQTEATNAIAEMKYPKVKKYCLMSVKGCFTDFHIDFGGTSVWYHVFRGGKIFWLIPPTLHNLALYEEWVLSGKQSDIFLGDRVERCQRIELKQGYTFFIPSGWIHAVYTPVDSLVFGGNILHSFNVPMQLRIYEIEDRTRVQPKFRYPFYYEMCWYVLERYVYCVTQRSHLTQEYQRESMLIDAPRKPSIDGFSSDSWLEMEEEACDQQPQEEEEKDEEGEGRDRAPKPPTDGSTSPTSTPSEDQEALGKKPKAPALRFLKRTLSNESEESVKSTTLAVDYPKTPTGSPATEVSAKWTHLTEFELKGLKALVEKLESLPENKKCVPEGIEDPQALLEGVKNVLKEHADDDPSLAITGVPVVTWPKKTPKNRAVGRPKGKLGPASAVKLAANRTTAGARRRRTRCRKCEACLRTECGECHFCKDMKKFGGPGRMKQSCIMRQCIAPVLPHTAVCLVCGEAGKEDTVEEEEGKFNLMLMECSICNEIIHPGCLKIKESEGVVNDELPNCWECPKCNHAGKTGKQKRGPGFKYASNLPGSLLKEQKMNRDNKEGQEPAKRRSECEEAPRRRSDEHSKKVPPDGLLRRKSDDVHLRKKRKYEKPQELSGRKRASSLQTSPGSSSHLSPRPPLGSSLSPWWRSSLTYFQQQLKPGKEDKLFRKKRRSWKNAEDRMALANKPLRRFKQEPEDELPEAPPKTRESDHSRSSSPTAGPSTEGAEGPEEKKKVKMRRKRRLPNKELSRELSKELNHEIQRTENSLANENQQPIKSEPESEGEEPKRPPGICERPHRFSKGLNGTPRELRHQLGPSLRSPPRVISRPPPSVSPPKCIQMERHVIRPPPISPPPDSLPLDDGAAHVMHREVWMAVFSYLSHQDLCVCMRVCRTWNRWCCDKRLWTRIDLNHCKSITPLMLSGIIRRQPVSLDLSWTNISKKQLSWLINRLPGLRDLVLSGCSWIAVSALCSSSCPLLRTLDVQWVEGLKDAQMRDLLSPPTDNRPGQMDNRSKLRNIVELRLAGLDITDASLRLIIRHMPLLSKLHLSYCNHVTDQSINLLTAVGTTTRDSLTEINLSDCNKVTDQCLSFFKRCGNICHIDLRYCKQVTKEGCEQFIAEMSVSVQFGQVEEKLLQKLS

B1: EBNA3C HDmut (209TFGC212 mutated to 209AAAA212) (natural protein)
chain: MESFEGQGDSRQSPDNERGDNVQTTGEHDQDPGPGPPSSGASERLVPEESYSRDQQPWGQSRGDENRGWMQRIRRRRRRRAALSGHLLDTEDNVPPWLPPHDITPYTARNIRDAACRAVKQSHLQALSNLILDSGLDTQHILCFVMAARQRLQDIRRGPLVAEGGVGWRHWLLTSPSQSWPMGYRTATLRTLTPVPNRVGADSIMLTAAAAAQNAARTLNTFSATVWTPPHAGPREQERYAREAEVRFLRGKWQRRYRRIYDLIELCGSLHHIWQNLLQTEENLLDFVRFMGVMSSCNNPAVNYWFHKTIGNFKPYYPWNAPPNENPYHARRGIKEHVIQNAFRKAQIQGLSMLATGGEPRGDATSETSSDEDTGRQGSDVELESSDDELPYIDPNMEPVQQRPVMFVSRVPAKKPRKLPWPTPKTHPVKRTNVKTSDRSDKAEAQSTPERPGPSEQSSVTVEPAHPTPVEMPMVILHQPPPVPKPVPVKPTPPPSRRRRGACVVYDDDVIEVIDVETTEDSSSVSQPNKPHRKHQDGFQRSGRRQKRAAPPTVSPSDTGPPAVGPPAAGPPAAGPPAAGPPAAGPPAAGPPAAGPRILAPLSAGPPAAGPHIVTPPSARPRIMAPPVVRMFMRERQLPQSTGRKPQCFWEMRAGREITQMQQEPSSHLQSATQPTTPRPSWAPSVCALSVMDAGKAQPIESSHLSSMSPTQPISHEEQPRYEDPDAPLDLSLHPDVAAQPAPQAPYQGYQEPPAPQAPYQGYQEPPPPQAPYQGYQEPPAHGLQSSSYPGYAGPWTPRSQHPCYRHPWAPWSQDPVHGHTQGPWDPRAPHLPPQWDGSAGHGQDQVSQFPHLQSETGPPRLQLSLVPLVSSSAPSWSSPQPRAPIRPIPTRFPPPPMPLQDSMAVGCDSSGTACPSMPFASDYSQGAFTPLDINATTPKRPRVEESSHGPARCSQATAEAQEILSDNSEISVFPKDAKQTDYDASTESELD
notes: EBNA3C of Epstein-Barr virus, strain B95.8, with the TFGC (homology domain) motif mutated to alanines; also called homology domain mutant
B2: EBNA3C W227S (natural protein)
chain: B1 chain with A209T, A210F, A211G, A212C, W227S
notes: EBNA3C of Epstein-Barr virus, strain B95.8, with W227S in the 226VWTP229 motif

Legend:
[1] = target: T1, BMI1; experiment: co-IP; LCL extracts (10^7 cells lysed in IP buffer, precleared); the cellular protein (RBPJ, BMI1, SUZ12 or KDM2B) immunoprecipitated from 200 ug lysate overnight at 4°C, protein G-Sepharose, four washes; Western blot for EBNA3C; isotype IgG control; mutants quantified by ImageJ as percent relative IP compared to EBNA3C WT; conditions: partners not purified
[2] = target: T2, histone lysine demethylase KDM2B; experiment: as above; conditions: partners not purified

| Binder | percent relative IP compared to EBNA3C WT [1] | percent relative IP compared to EBNA3C WT [2] |
| --- | --- | --- |
| B1 | 60% | 8% |
| B2 | – | 80% |
